Assay: soluble on expression in E. coli; label from the status in PepcDB or PDB records

Sequence	soluble on expression in E. coli
MGALAELAGDEKNGEGSRTFVFTNEGHTLGNALKTIIARYPEVDFCGYTIPHPTEQKLHFRIQSRRDRAIDILKRGLEDLEGLCDHTIVTFEKEMAEFNAMKVENLEHHHHHH	not soluble
MGALIPSSTLFNIFDFNPKKVRIAFIAVGLRGQTHVENMARRDDVEIVAFADPDPYMVGRAQEILKKNGKKPAKVFGNGNDDYKNMLKDKNIDAVFVSSPWEWHHEHGVAAMKAGKIVGMEVSGAITLEECWDYVKVSEQTGVPLMALENVCYRRDVMAILNMVRKGMFGELVHGTGGYQHDLRPVLFNSGINGKNGDGVEFGEKAFSEAKWRTNHYKNRNGELYPTHGVGPLHTMMDINRGNRLLRLSSFASKARGLHKYIVDKGGESHPNAKVEWKQGDIVTTQIQCHNGETIVLTHDTSLQRPYNLGFKVQGTEGLWEDFGWGEAAQGFIYFEKIMNHSHRWDSSEKWIKEYDHPMWKKHEQKAVGAGHGGMDYFLDNTFVECIKRNEAFPLDVYDLATWYSITPLSEKSIAENGAVQEIPDFTNGKWKNAKNTFAINDDY	soluble
MGAPLADILHALVLKIEDQRLGTHASVLLLSEDGKRVLTGAAPHLPDSYNQVIHGVEIGPEVGSCGTAAYTGQRVIVEDIEHHPYWALYKSFALVHGLRACWSEPIKDTQGKVLGTFAMYYKEIKSPTVADLTLIAEAARLASLAIERSRSLEFQRLAVKILEHHHHHH	soluble
MGARKASAGASRAATAGVRISHPQRLIDPSIQASKLELAEFHARYADLLLRDLRERPVSLVRGPDGIGGELFFQKHAARLKIPGIVQLDPALDPGHPPLLQIRSAEALVGAVQMGSIEFHTWNASLANLERPDRFVLDLDPDPALPWKRMLEATQLSLTLLDELGLRAFLKTSGGKGMHLLVPLERRHGWDEVKDFAQAISQHLARLMPERFSAVSGPRNRVGKIFVDYLRNSRGASTVAAYSVRAREGLPVSVPVFREELDSLQGANQWNLRSLPQRLDELAGDDPWADYAGTRQRISAAMRRQLGRG	soluble
MGCRATQRESVGFADKIRYTERRFISVFGVPLLIQLICQAPQRAQELEQIAARWQLQASDDSPFALVLSEERLELRKLDEPKLGAIYVDWVEGAVAHRRKFGGGKGQSIAKAAGLNKGVTPVVLDATAGLGRDAFVLASLGCRVQMVERHPVVAALLEDGLQRAKQDDEIGAWVSERISLLHASSHDALQQLASDPNFTSPDVVYLDPMYPHPENKKKTALVKKEMRVFQSLVGADNDADALLEPALQLAQKRVVVKRPDYAPWLGNRKPSMAMETKKNRFDVYVIAAMSGE	soluble
MGDNWRYEVKYDGFRTILFWTKETIRLESRNERLLTDQFPEIHDFCQRISNKVEAWLPITIDGELVHLVSPYRAHFAPIQTRSFMRKHETIAASSIKTPATLLAFDILELKGKTLVDLPYDERKKQLKALLKAIDVPLEHHHHHH	not soluble
MGDQLDAVEVQAISPDGEITVKLGTGDAVDVQFKSDEYFKSVPHETLSHQLGRALTLLAVGRIRKRHQILEAEGFEVYGEDDAHWDKRVRVFREKRAQVKAAGRSPKRHIAIATVGLRDFKVRFERDVTRRLSRSEFSGEFGGAVAAVISEYSAQMTQLKTAMFT	not soluble
MGDVIKVLDAQVRESLSGLPELHINFRARIILNPEDPRVDSIPPLEEVRIATYTRKKIGDIEPGDRFIEIRGTIAKVYRVLTYDACPECKKKVDYDPGTGVWICPEHGEVEPIKMTILDFGLDDGTGYIRVTLFGDDAEELLGVSSEEIAEKIKELENSGLTTKEAARKLAEEEFYKIIGKEIVVRGNVIEDRFLGLILRASSWEEVDYRKEIENIKEELEKLGVMLEHHHHHH	soluble
MGDWIIKLEDVSAGYGKLQTLFDVSLEIPRGLITVIVGPNGAGKSTLLKTMFGFTTVYKGRVLFENTDVTHMPPHDRAKIGMTFIFQLENIFRELTVYENLRLAGYDLPEDVFRDRLEEVFSMFPRLKERLGQKAGTLSGGERQMLAMAIGIMRKPKVFLIDEPTAGLSPKLAKEVLSYVRILNKEGYTVVLVEQNVKASLEIGDKGVLVVNGRIAFDGPAEELLARKDLAKMYLGV	soluble
MGDWMIENKVRDVVKKLKPYVPGKSKEEIARAYGIKPEDIIKLGSNENPWGPSPKIKEKILDEIDKIHQYPEPVNPILMKELSKFLNVDEENIIVGGDGADEIIDTIFRTFVDDGDEVIIPIPTFTQYRVSATIHNAKIKYAKYDKEKDFKLNVESVLNNITDKTKVIFLCTPNNPTGNIIENRDVERVINETDALVVIDHAYIEYAKKEYDWTQKAPEYDNVIVLRTFSKVFGLAGMRVGYGVANKKIIDYMMRVKPIFSLTRLSQVCAITALRDREFFERCVRDGIKSREMLYNGLKKFKDIKVYPSEANYLLVELKTMKAKEFCEELLKRGVIVRDCTSFDGLGDNYVRVSIGTFEEVERFLKILEEIIS	not soluble
MGEAPAVLVDHPENGHSNGVCVKSEPENTEITVDVGDRIFLIGGTHERNNFSIGVQIYDKISNNWFSPIVLGTGPKPSKGYSAFVLEQGRILVIKKGSPRNDSIWFLEVDSPYVREQKKLLRKEVVAWSKGVRGNAEKPIVISGPSGVGKGTLISMLMKEFPSMFGFSVSHTTRSPRSMEMDGVHYHFADKKVMEKEIKDGKFLEFASVHGNLYGTSIESVEAVTDSGKRCILDIDVQGARSVRASSLDAIFIFVCPPSMKELEDRLRARGTETEEQIQKRLRNAEAEIKEGISSGIFGLILYNDNLEECYKKLKNLLGLDGLAHVNGVEIEGINLPIEYAVSKMEDKIIIQETGKETRNKIVVDISSLNGGAPGRTRGILVDAIKF	soluble
MGEENQPNYTISQENWSLHRKGYDDQQRHQEKVQEAIKNNLPDLVTEESIVMSNGKDVVKIPIRSLDEYKIRYNYDKNKHVGQGNGDSKVGDVVARDGSGGQKQKGPGKGQGAGDAAGEDYYEAEVSILELEQAFFRELELPNLKRKEMDENRIEHVEFNDIRKTGLWGNIDKKRTMISAYKRNAMGGKASFHPIHQEDLKFRTWNEVLKPDSKAVVLAMMDTSGSMGIWEKYMARSFFFWMTRFLRTKYETVDIEFIAHHTEAKVVTEEEFFSKGESGGTICSSVYKKALELIDNKYSPDRYNIYPFHFSDGDNLTSDNARCVKLVEELMKKCNMFGYGEVNQYNRHSTLMSAYKNIKDENFRYYILKQKADVFHAMKSFFREESGEKMALEHHHHHH	soluble
MGEIIKESDKRVALKLPANVTEIDDRAFLGCTRLESIDLSACTSLTAIKLAAFKGCTSLKAVQLPQSLTTIGHFAFEGCTALKEVELPQNLTVIGTDAFKGCSIETLVIHCDIKGTIIENFTKKDEVNKNVKKLTLGKGVTTIGNYAFYIIGYSKLAAVDFSACTALTEIGENAFAYSKLTNVNLSACIKLTEIGKSAFSNCTDLTNVDLSGCTALTTIGEQAFNSCYEATVKLPTGITAIGNEAFGENDEDFLCKNVLIPRSHAATIKPLVTASDYPEDRIREY	not soluble
MGELWGNGGGCYSPVPPVMIPFMAYYEKRGDAWRAQIRRKGYPTLSATFDTKAEAQRWAAELEGDMSRARFVDVREAEATSLATALERYESEVTESKKGAKQERVRIKKWMESKFAGKSLASLRSSDMASYRDAEIKAGRSTATVRLDLAVISHLYTVATKDWGIEGLTNPCRALRMPKGSKQRERRPTADELKSLYKAAGEISPELPVIIELAVETAMRRSELVTLRKDQIQGKVAFLEDTKNGERRSVPLSSRARELIEGVPAPIKGGPLFRLKADTVSNYFPLACEKANIQGLRLHDLRHEATSRLFERGFTMMEVASITGHKTLAMLKRYTHLSPQDLAEKLG	not soluble
MGFADFFKNFKINKLRTAPSKEEQPSHWVKCPKCYALMYHKEVFSKYSVCLKCHYHFRMKAAERIEFLCDVGSFEEFDKHLRPNDPLNFVDKESYKQRIKKYEKRTNRPSSVISGEAKINRMPLQIVVFDFSFMGGSLGSVEGEKIVRAINRAVAKREALLIVSASGGARMQESTYSLMQMAKTSAALNRLSEAKLPFISLLSDPTYGGVSASFAFLGDLIIAEPGAMIGFAGPRVIKQTIGADLPEGFQTAEFLLEHGLIDMIVHRKDLKKTLSDLIAMMTHKTSKIFLEHHHHHH	soluble
MGFSKKSQFEGGLESDGKKWVIAGISIRASLKPVKTKLRAPPEIVTEVEEDCYNEEEECSTTPTAKETKIPELLECPPAPRKRRPALKCRSNVVREFFTPPSDLETVFLRRR	not soluble

From the DeepSol protein solubility set
